Results taken from publication PMC2993495 (Molecular cell, 2009).
Where a chain is given by its changes, count along the chain named. Several values for one entry are separate records, joined by “and”; a condition that tells them apart may be missing. Identical values can stand only once. Values belong to the molecule of their own block, whether it stands above or below them.

Assays:
[1] = molecular target: Mms21-M1, His6-tagged (budding yeast (S. cerevisiae)) (UniProt P38632); assay: pull-down
[2] = molecular target: His6-tagged wild-type Mms21 (budding yeast (S. cerevisiae)) (UniProt P38632); assay: ITC
Smc5-TAF = molecular target: T1, Smc5-TAF (budding yeast (S. cerevisiae), UniProt Q08204 1-1093); assay: co-IP
T1 sequence (looked up): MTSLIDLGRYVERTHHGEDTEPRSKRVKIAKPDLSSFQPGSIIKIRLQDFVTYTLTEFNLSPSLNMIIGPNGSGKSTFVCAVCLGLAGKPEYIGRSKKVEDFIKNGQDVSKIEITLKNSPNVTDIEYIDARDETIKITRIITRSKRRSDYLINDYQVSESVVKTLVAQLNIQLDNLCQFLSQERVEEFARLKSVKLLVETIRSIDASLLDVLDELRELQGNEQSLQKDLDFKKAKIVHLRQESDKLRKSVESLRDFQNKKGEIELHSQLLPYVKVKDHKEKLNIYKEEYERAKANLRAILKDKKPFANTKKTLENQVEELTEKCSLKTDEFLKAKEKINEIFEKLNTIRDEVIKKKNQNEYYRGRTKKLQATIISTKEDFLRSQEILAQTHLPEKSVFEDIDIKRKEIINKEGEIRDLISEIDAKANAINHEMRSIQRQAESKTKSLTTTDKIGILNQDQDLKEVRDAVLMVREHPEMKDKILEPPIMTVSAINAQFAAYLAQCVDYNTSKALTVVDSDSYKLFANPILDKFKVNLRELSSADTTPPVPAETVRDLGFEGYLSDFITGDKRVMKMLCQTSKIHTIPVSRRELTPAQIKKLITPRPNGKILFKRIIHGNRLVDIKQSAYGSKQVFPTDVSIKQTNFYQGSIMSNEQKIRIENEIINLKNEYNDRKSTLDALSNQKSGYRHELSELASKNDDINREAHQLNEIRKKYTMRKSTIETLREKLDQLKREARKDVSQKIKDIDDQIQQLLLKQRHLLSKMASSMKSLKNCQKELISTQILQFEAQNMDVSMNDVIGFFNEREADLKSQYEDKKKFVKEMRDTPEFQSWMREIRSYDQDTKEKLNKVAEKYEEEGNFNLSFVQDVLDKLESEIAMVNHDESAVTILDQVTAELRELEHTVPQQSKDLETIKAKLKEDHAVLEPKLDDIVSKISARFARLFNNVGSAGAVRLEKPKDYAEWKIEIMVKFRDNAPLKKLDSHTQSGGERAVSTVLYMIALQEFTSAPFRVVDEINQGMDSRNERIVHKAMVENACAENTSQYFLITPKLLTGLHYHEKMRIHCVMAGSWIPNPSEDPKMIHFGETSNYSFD

[3] = molecular target: T2, Mms21, full length (crystallised complex) (budding yeast (S. cerevisiae), UniProt P38632 1-267); assay: crystal structure
T2 sequence (looked up): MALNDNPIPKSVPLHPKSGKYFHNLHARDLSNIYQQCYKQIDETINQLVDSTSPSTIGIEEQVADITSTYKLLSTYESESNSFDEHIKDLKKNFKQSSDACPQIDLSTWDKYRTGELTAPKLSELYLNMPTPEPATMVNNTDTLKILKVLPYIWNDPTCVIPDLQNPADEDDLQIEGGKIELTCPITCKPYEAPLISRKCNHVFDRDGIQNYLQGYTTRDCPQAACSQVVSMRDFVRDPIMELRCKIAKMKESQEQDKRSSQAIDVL

Smc5 binding, percent of wild-type (% of wild-type) [1]: 84
dH [2]: -18.2 kcal/mol and -22 kcal/mol
Molecule: GST-Smc5-arm (from UniProt Q08204 302-369; Q08204 733-813) (domain or fragment)

Smc5 binding, percent of wild-type (Smc5-TAF): 5 % of wild-type
B1: mms21-M1-3HA (natural protein, budding yeast (S. cerevisiae))
chain: T2 sequence (looked up) with P9A, V12A, L14A, H15A

Smc5 binding, percent of wild-type (Smc5-TAF): 66 % of wild-type
B2: mms21-M5-3HA (natural protein, budding yeast (S. cerevisiae))
chain: T2 sequence (looked up) with Y76A, E79A, S80A, F83A

Smc5 binding, percent of wild-type (Smc5-TAF): 30 % of wild-type
B3: mms21-M3-3HA (natural protein, budding yeast (S. cerevisiae))
chain: T2 sequence (looked up) with I33A, Y34A, C37A

binding result [3]: binds
B4: Smc5 arm chimera (Asp302-Leu369, Gly-Ser-Gly-Ser linker, Lys733-Gln813), 6xHis-tagged (domain or fragment, budding yeast (S. cerevisiae))
chain: DKKPFANTKKTLENQVEELTEKCSLKTDEFLKAKEKINEIFEKLNTIRDEVIKKKNQNEYYRGRTKKLGSGSKREARKDVSQKIKDIDDQIQQLLLKQRHLLSKMASSMKSLKNCQKELISTQILQFEAQNMDVSMNDVIGFFNEREADLKSQ
